Reference: the RNAGym collection of RNA variant scans (doi:10.1073/pnas.2313332121)

B1: TPR t1 (parent)
chain: GACCAAUCUGCCCUCAGAGCUCGAGAACAUCUUCGGAUGCAGAGGAGGCAGGCUUCGGUGGCGCGAUAGCGCCAACGUCCUCAACCUCCAAUGCAUCCCACCACAUGAUGAUGCCUGAAGAGCCUUGGUUUUUUG

Variants of: B1
Assay: polymerase ribozyme fitness, log enrichment relative to wild type (log ratio); higher = more active; in vitro selection for triplet polymerase activity
In short: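 Both subunits of a heterodimeric triplet polymerase ribozyme were given their own mutant library, built by PCR and transcribed. Each library was annealed with a biotinylated primer, the partner subunit and triplets, incubated frozen at −7 °C, and its extended constructs gel-excised, captured on streptavidin beads and amplified by RT-PCR, all in one round done in triplicate. Fitness is the logarithm of genotype enrichment relative to wild-type enrichment, with replicates averaged by inverse-variance weighting. That logarithm is base 2, and Illumina-sequenced genotypes needed ≥10 input reads and ≥1 read per output.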

| Variant | polymerase ribozyme fitness (log ratio) |
| --- | --- |
| G52A G69A A90C U116G G117C A118G | -6.12 |
| G51U G57A C76A G110U G122U | -5.8 |
| C49U A50G | -1.68 |
| G51C C79A G117A U133G | -5.7 |
| A50G G120A | 0.658 |
| G51A C86U U87A G113C | -6.8 |
| G51U A111C | -4.77 |
| G51U A111U | -6.02 |
| G52A G60U C104G | -7.51 |
| A50G C72G C79A U132C | -1.72 |
| C49A U55C C88G C94U C124U | 0.14 |
| A50C G63C C97U | -1.52 |
| G52U C56U | -2.1 |
| G52A G69U U78A C89U G128U | -2.93 |
| A50U G52A A84U G128U | -5.16 |
| G51U U67A A75U C88A U106A U112C | -6.98 |
| A50G U55A G69A | -2.85 |
| C49G C94G | -1.92 |
| A50G U55G C79G A91C U109A | -6.64 |
| C53A C56G G71C G127C | -1.96 |
| G51A G65C C114G | -6.09 |
| C49G C70U A84G U126G U129G G135C | -4.25 |
| A50G G113U U131A | -4.11 |
| G51U G61C U87C C123A | -4.21 |

| Variant | polymerase ribozyme fitness (log ratio) |
| --- | --- |
| C49U U96A | -3.17 |
| C49U C70G C102A A111C U116A G120C | -6.27 |
| C49U C104U C124A | 1.02 |
| A50G U87G | 0.406 |
| C49U C53U | -0.552 |
| G52A U109A | -5.76 |
| A50C C73A U78G A90G | -1.98 |
| C49G G107A | -6.49 |
| C49G U125A | -0.51 |
| C49G A83G C124G | 1.03 |
| C49G C88A G107U | -6.08 |
| A50U C88A G110A | -3.66 |
| G52C C72A | -1.99 |
| C53A C62A G77C | -0.326 |
| G52U G57C C97G C114A A119U | -6.02 |
| G51C G60A A111G | -4.94 |
| A50G C56A C82A U131C | -1.25 |
| G52U G69U A91C C104A | -2.27 |
| G52U C53A | -1.2 |
| G51C U59A C82U C98U | -5.66 |
| G52A A66G | -1.47 |
| A50C C62G | -2.66 |
| A50C C62A | -2.99 |
| G51U C56A G69U U106C | -1.79 |

| Variant | polymerase ribozyme fitness (log ratio) |
| --- | --- |
| G51A A66U C104G A105U A121G | -7.62 |
| G51U C64G A83C G113U C123G G127A | -6.21 |
| G51U U87C C123A | -2.59 |
| C49G G135U | -1.27 |
| G51A U106A | -2.35 |
| G52A C73U C82U | -0.555 |
| A50C C73A U92G U112A G135A | -3.24 |
| G52U C53G G60C C80A C94U | -2.08 |
| G52C C64U A84U C104A U112A | -1.62 |
| A50G G60C | -1.81 |
| C53A A66G C123U | 0.367 |
| G51A U87A C101A | -4.9 |
| G52U C88G A118U | -0.0981 |
| A50U G63C U112A A118G | -2.37 |
| C49U U112A | 0.631 |
| G51U U125A | -3.77 |
| G51C A91U G113C C124A | -5.11 |
| G51U C62U C89U | -5 |
| A50U G52C G77U U130C | -3.17 |
| G52U C73A | -0.528 |
| G51C C62U | -3.45 |
| G52U G61A C94U | -0.267 |
| G51A G60A | -1.34 |
| C49U G52U C56U G77U C101A | -2.69 |

| Variant | polymerase ribozyme fitness (log ratio) |
| --- | --- |
| C49U C101A | -1.69 |
| C49G G69A A100C C101U | -5.56 |
| C49U C53U C79A G120A G128A | -3.2 |
| C49U C86U C97U G117C C124A | -4.42 |
| C49U G77U C123G | 0.718 |
| C49G C53A U59G C72U C86U U132A | -0.782 |
| G52A C72G G128C U130G | -1.87 |
| C49G U109A U112A | -5.85 |
| A50G C70U G113C | -3.88 |
| C49U C64A U81A G93U C114G C123U | -6.8 |
| C49U U54G U59A C79U C101A G113U | -5.96 |
| C49G C62A U78C | -1.5 |
| G51U G71C | -5.37 |
| G51U C73U U112C | -1.32 |
| G52A G63U C114A | -3.58 |
| G52A C53A A74G A90G | 0.00151 |
| A50U G93A | -1.21 |
| A50U C101A | -2.09 |
| C49U C72U | -0.879 |
| C49G U81G | -3.01 |
| A50U C62U A91C | -3.88 |
| A50U G63U C104A | -5.48 |
| C49U G93A | -1.33 |
| A50C G61U C114U A118G | -3.14 |

| Variant | polymerase ribozyme fitness (log ratio) |
| --- | --- |
| G51A U81C C97U C115G | -5.02 |
| G52U G61C C124G U131G | -1.09 |
| C49A U106G | -2.41 |
| C49A U106A | -0.478 |
| C49U C115A | -0.871 |
| A50C C56G A121U | 1.61 |
| G51C C72A | -3.1 |
| A50G G117A | -1.18 |
| A50C G110C | -4.96 |
| A50U G117C G120C | -5.84 |
| G51U G117U | -5.83 |
| C53A A90U G117C | -4.59 |
| C53A C56G C70U U132A | -0.0503 |
| C53A A66U C72U C123U | 0.234 |
| A50G A74U A91C | -2.03 |
| A50U G69U U81C C114A | -2.1 |
| G51A G57C C114A | -3.38 |
| G52A C82U A90C G117C | -3.56 |
| G51A C101U G117A | -4.58 |
| C49G U129C | -0.4 |
| C49U C72U C89G | -1.87 |
| A50C G63A U81A | -0.41 |
| G52U C62A | -2.89 |
| C49G C79A | -3.75 |

| Variant | polymerase ribozyme fitness (log ratio) |
| --- | --- |
| C49A G113A | -0.955 |
| C53A C72U C86U G110C | -3.78 |
| C49G U92C | -1.53 |
| A50U C99U | -5.15 |
| A50U G117U | -2.6 |
| A50C C76G C82A G120C | -0.0695 |
| A50U C56A C82G U87G G117A U132A | -4.26 |
| C53A C56A A84G U106C G113A | -2.51 |
| C49G G128U | -2.74 |
| C49U U106A U116C | -1.79 |
| G52U G60U | -0.578 |
| G52U G93C G120A G135C | -1.15 |
| A50U G63C U78A U112C U116G A119C | -6.63 |
| C49G G60C C86U | -0.802 |
| G51A C62U | -2.43 |
| G51U U112A A118U | -3.5 |
| A50C U78G G110C G120A C124U | -4.98 |
| G51U G61A | -3.03 |
| A50G U112C U116A | -0.435 |
| G52U G57U G61U A111U | -6.65 |
| C49G C70A G110A A121C | -4.74 |
| C49U C73U | -0.609 |
| A50C G71U U130A | -0.942 |
| A50U C62U C80U A84G A95U | -6.37 |

| Variant | polymerase ribozyme fitness (log ratio) |
| --- | --- |
| C49U G110U | -2.6 |
| C49A U78A G117C G128A U131C U133G | -6.98 |
| A50U U59C | -0.6 |
| C49G G60U U78C C97A | -5.83 |
| G52U C86G C89G G113C C114U A118G | -4.62 |
| A50G U129G | -0.967 |
| A50U G58A U78C A103G U109G | -5.98 |
| G52U G60A A105C U106G A118G | -3.93 |
| C49G C80U | -3.42 |
| G52U C114U U125A | -4.04 |
| A50C C115A U132C | -0.367 |
| G52A C98U | -1.13 |
| C49G U59G C62U G122A | -1.61 |
| G51C G57A | -3.2 |
| C49U A75U C79U U116A U130C | -4.3 |
| C49U A66G G120C C123G | -1.48 |
| C49U G51U C62U C80A G113A | -4.27 |
| A50C | -0.212 |
| A50U | -0.868 |
| A50G | 0.111 |
| G51U C76A U106A | -2 |
| G51U G71U C79G | -2.26 |
| G51U G77C A91C C94A | -5.09 |
